Common to all, as to assay: HPLC, Lineweaver-Burk
Holding throughout (format): biochemical, Albuca bracteata

Substrate in data set [1]: O=C1C[C@@H](c2ccc(O)cc2)Oc2cc(O)cc(O)c21
As to conditions: F3H activity, apparent Km, 2-oxoglutarate, Fe2+, ascorbate, pH 6.0, 20 °C. The text has this:
(§1) HPLC, Lineweaver-Burk on OcFLS2

Substrate in data set [2]: O=C1c2c(O)cc(O)cc2O[C@H](c2ccc(O)cc2)[C@H]1O
As to conditions: FLS activity, apparent Km, 2-oxoglutarate, Fe2+, ascorbate, pH 6.0, 20 °C.
Description: as §1

Substrate in data set [3]: O=C1C[C@@H](c2ccc(O)cc2)Oc2cc(O)cc(O)c21
As to conditions: F3H activity, apparent Km, 2-oxoglutarate, Fe2+, ascorbate, pH 6.0, 20 °C. An excerpt:
(§2) HPLC, Lineweaver-Burk on OcFLS1
This is another data set of the same source.

Substrate in data set [4]: O=C1c2c(O)cc(O)cc2O[C@H](c2ccc(O)cc2)[C@H]1O
As to conditions: FLS activity, apparent Km, 2-oxoglutarate, Fe2+, ascorbate, pH 6.0, 20 °C.
Description: as §2
This is another data set of the same source.

This passage reports Km and Vmax results from article PMC6515686, “Characterization of two flavonol synthases with iron-independent flavanone 3-hydroxylase activity from Ornithogalum caudatum Jacq” (BMC Plant Biology, 2019).

B1: OcFLS2 (Albuca bracteata) (protein)
chain: MEVERVQAIASMTASLGTIPAEFIRSEHERPDITTYHGPVPDIPVIDLSDTDRAAVAKAIADAAQEWGIFQVVNHGIPVEAIKELQRVGKGFFELPQEEKEAYATVPDSGSFEGYGTKLQKDLGGKKAWVDYLFHNVWPESKINYRFWPNNPPEYRKANEEYAKYLQEVVDEMLSSLSVGLGLEGHVLKEAVGGDELEYLLKINYYPPCPRPDLALGVVAHTDMSAITILVPNEVPGLQVFKDDHWFDAKYIPNALIVHIGDQIEILSNGKYKSVLHRTTVNKEKARMSWPVFCSPPGEMIVGPLPQLVSDENPAKFKTKKYKEYSYCKINKLPQ
As for B1, in data set [1], the Km was 110.5 ± 20.86 µM and the Vmax came out at 5.82 µM/min. In data set [2], the Km stood at 525.7 ± 198.4 µM and the maximum rate (Vmax) was 15.1 µM/min.

B2: OcFLS1 (Albuca bracteata) (protein)
chain: MEVERVQAIASMTASLGTIPAEFIRSEHERPDITTYHGPVPDIPVVDLSATDRAGVTKAIAEAAQEWGIFQVVNHRVPIEAIKELQRVGKEFFELPQEEKEAYATVPDSGSFEGYGTRLQKDLEGKKAWVDYLFHNVWPQSKITYRFWPNNPPEYRKANEEYAKYLQGVVDEMLTSLSLGLGLESHVLKEAVGGDELEYLLKINYYPPCPRPDLALGVVAHTDMSAITILVPNEVPGLQVFKDDHWFDAKYIPNALIVHIGDQIEILSNGKYKSVLHRTTVNKEKARMSWPVFCSPPGEMIVGPLPQLVSDENSAKFKTKKYKDYSYCKINKLPQ
Regarding B2, in data set [3], the Km came to 37.57 ± 6.316 µM and the Vmax stood at 2.05 µM/min. Further, in data set [4], the Km stood at 471.3 ± 179 µM and the maximal velocity (Vmax) stood at 12.9 µM/min.
